Test system: MS2 coat protein
Experiment: apparent KD of MS2 coat protein; designed switch direction (-1 OFF switch, 1 ON switch): 1; higher = weaker reporter binding
Outline: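 Three titration conditions were used: no input, 200 uM small-molecule ligand, and an oligonucleotide input. In each, SNAP-549-labelled MS2 coat protein was raised from 0.7 or 1.5 nM, doubling, to 3 µM over designed RNA switches transcribed on Illumina chips by stalled E. coli RNA polymerase. Curve fits of normalised cluster fluorescence gave values whose per-design median over clusters is the apparent KD.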

[1] = input ligand: microRNA oligo, concentration not stated
[2] = Eterna round: R95, input ligand: FMN 200 uM
[3] = Eterna round: R95, input ligand: microRNA oligo, concentration not stated
[4] = Eterna round: R95, input ligand: none

## UGGCUGGUGCUAGGAUAUCCAUGAGGAAUCCUCGUAGAAGGAGCACGACAUGAGGAUCACCCAUGUAGCCGUCCGUAGACGGCU [salish99_SSNG1_r04_008] (Eterna round: R96, puzzle: Same State NG 1)
Input ligand: FMN 200 uM
  apparent KD of MS2 coat protein: 287 nM
[1]
  apparent KD of MS2 coat protein: 185 nM
Input ligand: none
  apparent KD of MS2 coat protein: 240 nM

## UGGCUGGUGCUAGGAUAUGCAUGAGGCCUCCUCGUAGAAGGAGCACGACAUGAGGAUCACCCAUGUAGCCGUCCGUAGACGGCU [salish99_SSNG1_r04_011] (Eterna round: R96, puzzle: Same State NG 1)
Input ligand: FMN 200 uM
  apparent KD of MS2 coat protein: 62.7 nM
[1]
  apparent KD of MS2 coat protein: 50.1 nM
Input ligand: none
  apparent KD of MS2 coat protein: 63.3 nM

## UGGUAACAUGAGGAUCACCCAUGUCAAAUGAAUCAAGGAUAUGGGAAAGGAGAAGAGAAACCAGAAGGUGAGGUUG [Altered State 1-15 - Jieux - Same State 1] (puzzle: Same State 1)
[2]
  apparent KD of MS2 coat protein: 108 nM
[3]
  apparent KD of MS2 coat protein: 205 nM
[4]
  apparent KD of MS2 coat protein: 167 nM

## UGGUAACAUGAGGAUCACCCAUGUCAAGAGAAUCAAGGAUAUGGUAAGUAAUAAGAGAAUCUAGAAGGUGAAGUUG [Altered State 1-25 - Jieux - Same State 1] (puzzle: Same State 1)
[3]
  apparent KD of MS2 coat protein: 73.3 nM

## UGGUACAUGGGAGGAUAUCUCAUGGAGACAUGAGGAUCACCCAUGUAGUUGGGCCGGAAACGGUGAGAGAAGGCCCAUGUACCU [JL SSNG1 3.71] (Eterna round: R96, puzzle: Same State NG 2)
Input ligand: FMN 200 uM
  apparent KD of MS2 coat protein: 377 nM
[1]
  apparent KD of MS2 coat protein: 338 nM
Input ligand: none
  apparent KD of MS2 coat protein: 473 nM

## UGGUACAUGGGAGGAUAUGGAGUGAAGACAUGAGGAUCACCCAUGUUAUAAAUGCCGAGAGGCAACUAGAAGGCCCAUGUACCU [JL SSNG1 3.94] (Eterna round: R96, puzzle: Same State NG 2)
[1]
  apparent KD of MS2 coat protein: 54.3 nM

## UGUACCUUCACAGGAUAUCAUGCGAAAAUUGCGUGAGAAGGGUGAAUACUGUGUUAAUAAAAGCACAUGAGGAUCACCCAUGUA [SameState NG1 #57] (Eterna round: R96, puzzle: Same State NG 1)
Input ligand: FMN 200 uM
  apparent KD of MS2 coat protein: 392 nM
[1]
  apparent KD of MS2 coat protein: 12.7 nM
Input ligand: none
  apparent KD of MS2 coat protein: 43.4 nM

## UGUCCAGCCUGAGCUGGACAAAAGCAUGUACAUGAGGAUCACCCAUGUUCAUGUACAAGCUUUUUGCUCGUCUUAGG [salish99_208a_r3_066] (puzzle: Sensor for hsa-mir-208a)
[2]
  apparent KD of MS2 coat protein: 695 nM
[3]
  apparent KD of MS2 coat protein: 19.2 nM
[4]
  apparent KD of MS2 coat protein: 506 nM

## UGUCCAGCCUGUGCUGGUCUUUAGCAUGUACAUGAGGAUCACCCAUGUCGUGUACAUGCUUUUUGCUCGUCUUUAAA [Photon Torp-05] (puzzle: Sensor for hsa-mir-208a)
[2]
  apparent KD of MS2 coat protein: 68.9 nM
[3]
  apparent KD of MS2 coat protein: 25.9 nM
[4]
  apparent KD of MS2 coat protein: 92.2 nM

## UGUCCAGCCUGUGCUGGUCUUUUGCAUGUACAUGAGGAUCACCCAUGUCGUGUUCAUGCUUUUUGCUCGUCUUUAAA [Photon Torp-02] (puzzle: Sensor for hsa-mir-208a)
[2]
  apparent KD of MS2 coat protein: 49.7 nM
[3]
  apparent KD of MS2 coat protein: 17.2 nM
[4]
  apparent KD of MS2 coat protein: 53.5 nM

## UGUUAGUAGACAGGAUAUUGAAUGUUAAGUAUUAACAUGAGGAUCACCCAUGUAUUUGAUUGGUACAAGAAGGGUCAAGUUUGU [JR_SSNG2_Sub013] (Eterna round: R96, puzzle: Same State NG 2)
Input ligand: FMN 200 uM
  apparent KD of MS2 coat protein: 487 nM
[1]
  apparent KD of MS2 coat protein: 191 nM
Input ligand: none
  apparent KD of MS2 coat protein: 320 nM
